From the nanobody polyreactivity screen of Harvey et al. (2022)

Assay: yeast display, Sf9 membrane polyspecificity reagent, FACS + sequencing; frameworks hold sequencing errors
Outline: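 Galactose induction of a Saccharomyces cerevisiae BJ5465 synthetic nanobody display library ran 36–48 hours. The cells were then stained for 1 hour at 4 °C with 10% biotinylated, detergent-solubilized Sf9 membrane reagent, pulled down on streptavidin microbeads and FACS-sorted into low and high (top ~1%) gates on expression and reagent-binding fluorescence. Labels for polyreactivity follow the gate of origin.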

For “QVQLVESGGGLVQAGGSLRLSWAAYGRIVKYAMGWYREPPGKERELVAAISGSGGTTYYADSVKGRLTISRDNAKNTVEFHMKSLKPEDTAVYYCAASRPRPPSSRRMVYWGQGSQVTVSS”, which “polyreactivity (PSR sort gate)” value is on record?
Its value is “high polyreactivity”.

Which “polyreactivity (PSR sort gate)” value does the source give for “QVQLVESGGGLVQAGGSLRLSCAASGSIFEYYAMGWYRQAPGKERELVADITTIGGSTYYADSVKGRFTISRDNAKNTVYLQMNSLKPEDTAVYYCAADYFTTFYWYDYWGQGTQVTVSS” here?
The value was “high polyreactivity”.

With “QVQIVESGGGLVQAGGSLRLICAASGRILSANAMGWYRQAPGKERELVAAITYSGDNTYYADYVKGRFTISRDNANNTVYLQMNSLKPEDTAVYYCAREFQVDGGEEDYWGQGTQVTVSS” as the sequence, how does the “polyreactivity (PSR sort gate)” value read?
The value was “low polyreactivity”.

With “QVQLVESGGALVQAGGSLRLSCAASGSIFCYYAMGWYRQAPGKERELVAVINSGGRTNYADSVKGRFTISRDNAKNTVYLQMNSLKPEDTEVYYCAAQGYFVDRAGRYYRGDYWGQGTQVTVSS” as the sequence, how does the “polyreactivity (PSR sort gate)” value read?
Its value is “high polyreactivity”.

For “QVQLVESGGGLVQAGGSLRLSCAASGRTFSTYAMGWYRQAPGKERELFAAISSGGGRTYYADSVKGRFTISRDNAKNTVYLQMNSLKPEDTAVYYCAADRYFRSRRSYEYWGQGTQVTVSS”, which “polyreactivity (PSR sort gate)” value is on record?
The value was “low polyreactivity”.

For “QVQLVDSGGRLVQAGGSLRLSSPASGLIISAYAMGWYRQAPGKEMEFVAAISRSGGITYYADSVKGRFTISRDNAKNTVYLQMNSLKPEDTAVYYCNARLYDPTLKFGYWGQGTQVTVSS”, which “polyreactivity (PSR sort gate)” value is on record?
Its value is “high polyreactivity”.

With “QVQLVESGGGLVQAGGSLRLSCAASGLTFEKYAMGWYRQAPGKERELVAAISQDGGSTYYADSVKGRFTISRDNAKNTVYLQMNSLKPEDTAVYYCAAEDPDSWLPWDLFDYWGQGTQVTVSS” as the sequence, how does the “polyreactivity (PSR sort gate)” value read?
Its value is “low polyreactivity”.

For “QVQLVESGGGLVQAGGSLRLSCAASGRIFRQKAMGWYRQAPGKERELVASISSGGNTYYADSVKGRFTISRDNAKNNVYLQMNSLKPEDTAVYYCAAAKQRYYRWWTTPGYDYWGQGTQVTVSS”, which “polyreactivity (PSR sort gate)” value is on record?
The value was “low polyreactivity”.

With “QVQLVESGGGLVQAGGSLRLSCAASGSTFVGNAMGWYRHAPGKEREMVATISNSGGRTYYADSVKGRFTISRDNAKNTVYLQLNSLKPEDTEVYYCAADHPAFGPGYSFDYWGQGTQVTVSS” as the sequence, how does the “polyreactivity (PSR sort gate)” value read?
Its value is “low polyreactivity”.

For “QVQLVESAGGLVQAGGSLRLSCAASGYTFKLYAMGWSRQAPGKERELVAAIRQRGGTTYYADSVKGRVTISRDNAKNTVYLQMNSLKPEDTAVYYCAVRFYLPNANGGYYYWGQGTQVTVSS”, which “polyreactivity (PSR sort gate)” value is on record?
Its value is “high polyreactivity”.

With “QVQLVESGGGLVQAGGSLRLSCAASGRTFLYNALGWYRQAPGKERELVAAISWSGGSTYYADSVKGRFTISRDNAKNTVYLQMNSLKPEDTAVYYCAATGRRSGFFYWGQCTQVTVSS” as the sequence, how does the “polyreactivity (PSR sort gate)” value read?
The value was “high polyreactivity”.

With “QVQLVESGGGLVQAGGSLRLSCAASGSIFTNNAMGWYRQAPRKERELVAAISWSGGSTYYADSVKGRFTISRDNAKITVYLQMISLKPEDTAVSYCAARYLYYGGRPGYDSWGQGTQVTVSS” as the sequence, how does the “polyreactivity (PSR sort gate)” value read?
The value was “high polyreactivity”.

Which “polyreactivity (PSR sort gate)” value does the source give for “QVQLVESGGGLGQAGGSLRLSCAASGSTFYRFTRGWYRQAPGKERELVASIRWTGGRTNYADSVKGRFTISRDNAKNTVYLQMNSLKPEDTAVYYCAAYLKYPYGASYGSWGQGTQVTVSS” here?
The value was “high polyreactivity”.

For “QVQLGESGGGLVQAGGSLRLSCAASGSIFSDYAMGWYRQAPGKERELVAAIRYRGGRTYYADSVKGRFTISRDNAKNTVYLQMNSLKPEDTAVYYCNADVIRRGGSRYSTGREFDYWGQGTQVTVSS”, which “polyreactivity (PSR sort gate)” value is on record?
The value was “high polyreactivity”.

Which “polyreactivity (PSR sort gate)” value does the source give for “QVQLVESGGGLVQAGGSLRLSCAASGFTFAVYAMGWYRQAPGKERELVAAISRSGTRTYYADSVKGRFTISRDNAKNTVYLQMNSLKPEDTAVYYCAAPWTQILDYWGQGTQVTVSS” here?
The value was “low polyreactivity”.

For “QVQLVESGGGLVQAGRSLRLSCAASGRTFRGYAMGWYRQAPGKERELVAAITWRGGSTYYADSVKGRFTISRDNGKNTVYLLMNSLKPEDCAVYYCNARQWPLAYEYWGLGTQVTVSS”, which “polyreactivity (PSR sort gate)” value is on record?
Its value is “high polyreactivity”.

With “QDQLVESGGGLVQARGSLRLSCAASGRIIKRYVMGWYRQAPGTERELVAAITSGGTNYADSVKGRFTISRDNAKNTVYLQMNSRKPEDTAVYSCAARYLYRAGSNYWGQGTQVTVSS” as the sequence, how does the “polyreactivity (PSR sort gate)” value read?
The value was “high polyreactivity”.

For “QVQLVESGGGLVQAGGSLRLSCAASGSTFSSNAMGWYRQAPGKERELVAAINRRGGTYYADSVKGRFTISRDNAKNTVYLQMNSLKPEDTAVYYCAAASPYHEYDYWGQGTQVTVSS”, which “polyreactivity (PSR sort gate)” value is on record?
The value was “low polyreactivity”.

Which “polyreactivity (PSR sort gate)” value does the source give for “QVQLVESGRGLVQAGGSLRLSCAASGRIFYYNDMGWYRQAPGKERELVASITGSGGSTYYADSVKGRFTISRDNAKNTVYLQMNSLKPEDTAVYYCAKREYLYPYYYVAKYDYWGQGTQVTVSS” here?
The value was “low polyreactivity”.

For “QVQLVESGGGLVQAGGSLRLSCAATGFTFGSNVMGWYRQAPGKERELVATIRRGGSTNYADSVKGRFTISRDNAKNTVYLQLNSLKPEDTAVYYCATRYREWGQGTQVTVSS”, which “polyreactivity (PSR sort gate)” value is on record?
Its value is “high polyreactivity”.

For “QVQLVESGGGLVQAGGSLRLSCAASGGTFVGYAMGWYRQAPGKERELVAAINSSGGRTYYADSVKGRFTISRDNAKNTVYLQMNSLKPEDTAVYYCAKPRTYHKDKYDYWGQGTQVTVSS”, which “polyreactivity (PSR sort gate)” value is on record?
The value was “high polyreactivity”.

For “QVQLVESGGGLVQAGGSLRLSCATTGSTFQVYTMGWNRQAPGKEREFVASISWSGSSTYYADSVKGRFTISRDNAKNTVYLQMNSLKPEDTAVYYCAARARIKYLADPGYYWGQGTQVTVSS”, which “polyreactivity (PSR sort gate)” value is on record?
The value was “high polyreactivity”.
